Laboratory results as given in US20060140946A1.

Molecular target: human lymphotoxin (TNFβ) (human) (UniProt P01374)
Assay: cell-based or functional assay

Chain of human lymphotoxin (TNFβ) (human) (P01374 35-205 limits assumed): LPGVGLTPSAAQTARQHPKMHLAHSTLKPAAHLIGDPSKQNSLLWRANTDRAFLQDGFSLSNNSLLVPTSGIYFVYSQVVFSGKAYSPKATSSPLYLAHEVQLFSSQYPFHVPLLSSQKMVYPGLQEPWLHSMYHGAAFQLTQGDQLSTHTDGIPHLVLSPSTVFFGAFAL

p75P-sf2 TNF receptor/IgG1 fusion protein (from UniProt P20333 23-204) (Fc fusion)
concentration required to half-inhibit human TNFβ at 2 pM, WEHI 164 cytotoxicity assay: 31 pM
